Laboratory results from patent publication US5677143.

Assays:
[1] = biological target: TRP-185 (cellular TAR RNA binding protein, about 185 kD) (Homo sapiens) (UniProt Q13395); assay: EMSA
Tat (wild-type) (HIV-1) = Tat (wild-type) (HIV-1) (UniProt P04608); assay: EMSA; details: printed as Ka of 6.4x10^-10 M; Scatchard, one tat per TAR RNA

TRP-185 (cellular TAR RNA binding protein, about 185 kD) (Homo sapiens), sequence (Q13395 whole entry): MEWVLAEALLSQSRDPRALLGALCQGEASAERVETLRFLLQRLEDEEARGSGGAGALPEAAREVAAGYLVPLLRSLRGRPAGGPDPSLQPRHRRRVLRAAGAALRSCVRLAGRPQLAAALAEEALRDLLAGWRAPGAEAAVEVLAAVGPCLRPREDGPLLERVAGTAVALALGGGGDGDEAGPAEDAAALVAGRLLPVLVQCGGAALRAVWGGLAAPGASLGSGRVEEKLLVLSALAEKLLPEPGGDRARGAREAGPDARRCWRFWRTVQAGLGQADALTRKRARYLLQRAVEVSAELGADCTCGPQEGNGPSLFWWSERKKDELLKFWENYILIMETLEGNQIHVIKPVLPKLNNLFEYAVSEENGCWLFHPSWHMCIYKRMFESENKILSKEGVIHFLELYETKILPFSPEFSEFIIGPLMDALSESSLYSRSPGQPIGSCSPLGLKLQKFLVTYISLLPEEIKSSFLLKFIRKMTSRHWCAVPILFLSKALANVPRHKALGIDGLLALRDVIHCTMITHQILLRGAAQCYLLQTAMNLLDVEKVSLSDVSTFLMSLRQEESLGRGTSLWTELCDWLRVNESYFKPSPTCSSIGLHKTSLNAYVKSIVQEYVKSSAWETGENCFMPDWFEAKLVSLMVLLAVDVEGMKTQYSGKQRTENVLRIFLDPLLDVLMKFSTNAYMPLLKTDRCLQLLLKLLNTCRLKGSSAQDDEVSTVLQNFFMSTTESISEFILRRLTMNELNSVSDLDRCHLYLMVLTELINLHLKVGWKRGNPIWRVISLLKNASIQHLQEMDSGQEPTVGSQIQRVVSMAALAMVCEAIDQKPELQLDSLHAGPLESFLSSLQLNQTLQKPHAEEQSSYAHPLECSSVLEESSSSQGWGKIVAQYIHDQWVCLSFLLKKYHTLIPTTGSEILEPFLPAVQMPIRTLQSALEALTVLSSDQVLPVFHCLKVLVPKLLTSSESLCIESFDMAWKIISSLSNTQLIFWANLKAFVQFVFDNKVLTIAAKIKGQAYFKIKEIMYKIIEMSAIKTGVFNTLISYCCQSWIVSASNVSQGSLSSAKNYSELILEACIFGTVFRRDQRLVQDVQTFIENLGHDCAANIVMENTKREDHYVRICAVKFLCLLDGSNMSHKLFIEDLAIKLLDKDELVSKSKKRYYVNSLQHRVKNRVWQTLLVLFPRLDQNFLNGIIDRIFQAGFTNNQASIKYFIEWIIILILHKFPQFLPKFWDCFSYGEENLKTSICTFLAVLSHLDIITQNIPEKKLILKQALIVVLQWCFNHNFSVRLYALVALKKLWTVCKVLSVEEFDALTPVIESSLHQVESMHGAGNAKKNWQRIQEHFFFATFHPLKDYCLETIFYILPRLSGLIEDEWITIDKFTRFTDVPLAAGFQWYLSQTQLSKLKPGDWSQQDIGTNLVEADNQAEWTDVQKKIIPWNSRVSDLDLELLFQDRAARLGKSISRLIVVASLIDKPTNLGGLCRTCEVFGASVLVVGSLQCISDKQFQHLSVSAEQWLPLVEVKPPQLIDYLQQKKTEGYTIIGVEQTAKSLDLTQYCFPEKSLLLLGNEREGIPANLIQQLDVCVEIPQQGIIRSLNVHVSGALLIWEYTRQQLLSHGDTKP

Substance | Kd ([1]; Scatchard, cofactor fraction required with sucrose gradient TRP-185, room temperature, 50 mM KCl) | Kd (Tat (wild-type) (HIV-1)) | Kd ([1]; data not shown)
HIV TAR RNA wild-type (+1/+80) | 0.315 nM | 0.64 nM | –
nonspecific RNA | – | – | 21100 nM
